Assays:
[1] = target: BSA (UniProt P02769); assay: ELISA, BSA wells, control Ab 1 µg/ml (control antibody not identified)
[2] = target: BSA (UniProt P02769); assay: ELISA, BSA wells, control Ab 5 µg/ml (control antibody not identified)
[3] = target: recombinant human IL-17F (SEQ ID NO: 77) (human) (UniProt Q96PD4); assay: cell-based or functional assay
[4] = target: recombinant mouse IL-17A (SEQ ID NO: 83) (mouse) (UniProt Q62386); assay: cell-based or functional assay
[5] = target: recombinant human IL-17A (SEQ ID NO: 76) (human) (UniProt Q16552); assay: cell-based or functional assay
[6] = target: recombinant mouse IL-17A/F (R&D Systems Cat#5390-IL) (mouse) (UniProt Q62386); assay: cell-based or functional assay
[7] = target: recombinant rat IL-17A (SEQ ID NO: 85) (rat) (UniProt Q61453); assay: cell-based or functional assay
[8] = target: recombinant human IL-17A/F heterodimer (human) (UniProt Q16552); assay: cell-based or functional assay
[9] = target: recombinant mouse IL-17F (SEQ ID NO: 84) (mouse) (UniProt Q7TNI7); assay: cell-based or functional assay
Sequence of recombinant mouse IL-17F (SEQ ID NO: 84) (mouse) (Q7TNI7 other isoform, or with tags, fused parts or gaps limits assumed): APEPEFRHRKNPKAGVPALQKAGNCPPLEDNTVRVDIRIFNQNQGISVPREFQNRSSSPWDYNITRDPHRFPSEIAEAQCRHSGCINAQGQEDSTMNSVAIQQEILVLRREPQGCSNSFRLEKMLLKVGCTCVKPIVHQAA

Sequence of recombinant human IL-17A/F heterodimer (human) (Q16552 24-155 limits assumed, chain 1 of 2): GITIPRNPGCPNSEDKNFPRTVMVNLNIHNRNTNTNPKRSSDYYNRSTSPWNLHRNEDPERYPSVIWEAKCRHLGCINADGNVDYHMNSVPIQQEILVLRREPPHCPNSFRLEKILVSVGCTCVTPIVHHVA
Sequence of recombinant human IL-17A/F heterodimer (human) (Q96PD4 31-163 limits assumed, chain 2 of 2, further chain): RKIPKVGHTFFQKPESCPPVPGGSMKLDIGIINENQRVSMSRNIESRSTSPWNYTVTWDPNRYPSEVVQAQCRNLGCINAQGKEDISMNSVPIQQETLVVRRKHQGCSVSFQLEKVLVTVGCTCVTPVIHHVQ
Sequence of recombinant human IL-17F (SEQ ID NO: 77) (human) (Q96PD4 other isoform, or with tags, fused parts or gaps limits assumed): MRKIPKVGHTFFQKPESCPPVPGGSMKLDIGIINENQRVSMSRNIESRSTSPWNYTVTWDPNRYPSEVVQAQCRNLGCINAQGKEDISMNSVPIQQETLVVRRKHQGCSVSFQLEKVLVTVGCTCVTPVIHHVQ
Sequence of recombinant human IL-17A (SEQ ID NO: 76) (human) (Q16552 other isoform, or with tags, fused parts or gaps limits assumed): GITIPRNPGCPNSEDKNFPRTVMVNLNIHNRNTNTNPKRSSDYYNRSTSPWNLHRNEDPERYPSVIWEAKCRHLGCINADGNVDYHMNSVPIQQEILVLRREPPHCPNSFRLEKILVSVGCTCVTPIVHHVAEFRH
Sequence of BSA (P02769 25-607 limits assumed): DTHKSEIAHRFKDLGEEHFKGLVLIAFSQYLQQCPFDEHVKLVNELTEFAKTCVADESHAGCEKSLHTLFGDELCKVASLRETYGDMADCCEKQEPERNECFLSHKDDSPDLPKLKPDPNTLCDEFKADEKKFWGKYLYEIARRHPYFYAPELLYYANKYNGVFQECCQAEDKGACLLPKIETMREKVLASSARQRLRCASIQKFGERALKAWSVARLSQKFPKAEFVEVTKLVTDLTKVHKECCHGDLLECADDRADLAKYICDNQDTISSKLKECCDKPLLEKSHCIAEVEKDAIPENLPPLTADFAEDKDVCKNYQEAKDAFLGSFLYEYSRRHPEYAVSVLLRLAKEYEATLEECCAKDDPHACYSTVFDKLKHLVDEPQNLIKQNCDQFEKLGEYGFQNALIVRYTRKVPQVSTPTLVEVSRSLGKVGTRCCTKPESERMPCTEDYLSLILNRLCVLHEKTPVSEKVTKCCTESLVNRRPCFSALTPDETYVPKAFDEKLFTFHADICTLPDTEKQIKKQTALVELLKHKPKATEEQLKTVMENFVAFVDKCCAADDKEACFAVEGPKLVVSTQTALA
Sequence of recombinant mouse IL-17A/F (R&D Systems Cat#5390-IL) (mouse) (Q62386 26-158 limits assumed, chain 1 of 2): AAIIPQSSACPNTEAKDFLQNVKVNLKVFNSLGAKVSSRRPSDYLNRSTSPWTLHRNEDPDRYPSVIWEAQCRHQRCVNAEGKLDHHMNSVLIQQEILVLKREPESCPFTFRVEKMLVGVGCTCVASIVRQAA
Sequence of recombinant mouse IL-17A/F (R&D Systems Cat#5390-IL) (mouse) (Q7TNI7 29-161 limits assumed, chain 2 of 2, further chain): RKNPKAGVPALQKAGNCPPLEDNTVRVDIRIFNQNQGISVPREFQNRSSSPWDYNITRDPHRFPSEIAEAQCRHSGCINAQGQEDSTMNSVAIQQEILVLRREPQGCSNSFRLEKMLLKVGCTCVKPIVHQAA
Sequence of recombinant mouse IL-17A (SEQ ID NO: 83) (mouse) (Q62386 other isoform, or with tags, fused parts or gaps limits assumed): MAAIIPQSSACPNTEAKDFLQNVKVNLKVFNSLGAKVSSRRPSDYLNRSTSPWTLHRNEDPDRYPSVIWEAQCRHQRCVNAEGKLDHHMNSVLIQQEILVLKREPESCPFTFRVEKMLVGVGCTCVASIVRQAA
Sequence of recombinant rat IL-17A (SEQ ID NO: 85) (rat) (Q61453 other isoform, or with tags, fused parts or gaps limits assumed): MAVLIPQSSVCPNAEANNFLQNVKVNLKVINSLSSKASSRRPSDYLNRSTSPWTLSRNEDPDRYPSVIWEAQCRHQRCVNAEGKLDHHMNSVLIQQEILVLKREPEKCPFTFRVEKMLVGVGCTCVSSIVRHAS

Substance | O.D. [1] | O.D. [2] | IC50, hu-GRO-alpha secretion by BJ cells; stimulus IL-17F (10 nM) + TNF-α (6 pM) [3] | IC50, hu-GRO-alpha secretion by BJ cells; stimulus IL-17F (30 nM) [3] | IC50, huIL-6 secretion by BJ cells; stimulus rhuIL-17F (10 nM) + rhuTNF-α (6 pM) [3] | IC50, huIL-6 secretion by BJ cells; stimulus rhuIL-17F (30 nM) [3] | IC50, mouse KC secretion by CMT-93 cells; stimulus mIL-17A (1 nM) [4] | IC50, hu-GRO-alpha secretion by BJ cells; stimulus IL-17A (30 pM) + TNF-α (6 pM) [5] | IC50, hu-GRO-alpha secretion by BJ cells; stimulus IL-17A (1 nM) [5] | IC50, huIL-6 secretion by BJ cells; stimulus rhuIL-17A (30 pM) + rhuTNF-α (6 pM) [5] | IC50, huIL-6 secretion by BJ cells; stimulus rhuIL-17A (1 nM) [5] | IC50, mouse KC secretion by CMT-93 cells; stimulus mIL-17A/F (3 nM) [6] | IC50, mouse KC secretion by CMT-93 cells; stimulus rIL-17A (1 nM) [7] | IC50, hu-GRO-alpha secretion by BJ cells; stimulus IL-17A/F (300 pM) + TNF-α (6 pM) [8] | IC50, hu-GRO-alpha secretion by BJ cells; stimulus IL-17A/F (3 nM) [8] | IC50, huIL-6 secretion by BJ cells; stimulus rhuIL-17A/F (300 pM) + rhuTNF-α (6 pM) [8] | IC50, huIL-6 secretion by BJ cells; stimulus rhuIL-17A/F (3 nM) [8] | IC50, mouse KC secretion by CMT-93 cells; stimulus mIL-17F (30 nM) [9]
Control antibody (not identified for this antigen) | 0.149 O.D. | 0.01 O.D. | – | – | – | – | – | – | – | – | – | – | – | – | – | – | – | –
Simulect® (antibody) | – | – | > 3000 nM | > 1000 nM | > 3000 nM | > 1000 nM | > 3000 nM | > 3000 nM | > 100 nM | > 3000 nM | > 100 nM | > 3000 nM | > 3000 nM | > 3000 nM | > 100 nM | > 3000 nM | > 100 nM | > 3000 nM

— patent US20180194839A1
